Assay results reported in patent publication US6602850B1, “Method of treating asthma using soluble IL-9 receptor variants” (Genaera Corporation, priority 1996, dated 2003).

B1: IL-9R: wild type human IL-9 receptor, Arg allele at codon 344 with 8 Ser/4 Asn repeats (SEQ ID NO 1) (protein)
chain: SVTGEGQGPRSRTFTCLTNNILRIDCHWSAPELGQGSSPWLLFTSNQAPGGTHKCILRGSECTVVLPPEAVLVPSDNFTITFHHCMSGREQVSLVDPEYLPRRHVKLDPPSDLQSNISSGHCILTWSISPALEPMTTLLSYELAFKKQEEAWEQAQHRDHIVGVTWLILEAFELDPGFIHEARLRVQMATLEDDVVEEERYTGQWSEWSQPVCFQAPQRQGPLIPPWGWPGNTLVAVSIFLLLTGPTYLLFKLSPRVKRIFYQNVPSPAMFFQPLYSVHNGNFQTWMGAHRAGVLLSQDCAGTPQGALEPCVQEATALLTCGPARPWKSVALEEEQEGPGTRLPGNLSSEDVLPAGCTEWRVQTLAYLPQEDWAPTSLTRPAPPDSEGSRSSSSSSSSSNNNNYCALGCYGGWHLSALPGNTQSSGPIPALACGLSCDHQGLETQQGVAWVLAGHCQRPGLHEDLQGMLLPSVLSKARSWTF
B2: ΔQ173 variant: splice variant of the IL-9R wherein the glutamine residue at position 173 of the precursor protein has been deleted (SEQ ID NO 3) (protein)
chain: SVTGEGQGPRSRTFTCLTNNILRIDCHWSAPELGQGSSPWLLFTSNQAPGGTHKCILRGSECTVVLPPEAVLVPSDNFTITFHHCMSGREQVSLVDPEYLPRRHVKLDPPSDLQSNISSGHCILTWSISPALEPMTTLLSYELAFKKQEEAWEAQHRDHIVGVTWLILEAFELDPGFIHEARLRVQMATLEDDVVEEERYTGQWSEWSQPVCFQAPQRQGPLIPPWGWPGNTLVAVSIFLLLTGPTYLLFKLSPRVKRIFYQNVPSPAMFFQPLYSVHNGNFQTWMGAHRAGVLLSQDCAGTPQGALEPCVQEATALLTCGPARPWKSVALEEEQEGPGTRLPGNLSSEDVLPAGCTEWRVQTLAYLPQEDWAPTSLTRPAPPDSEGSRSSSSSSSSSNNNNYCALGCYGGWHLSALPGNTQSSGPIPALACGLSCDHQGLETQQGVAWVLAGHCQRPGLHEDLQGMLLPSVLSKARSWTF

How the values were obtained:
[1] = test system: Jak-Stat pathway; assay: Tyrosine phosphorylation of Jak, Stat and Irs family members in TS1 cells expressing human IL-9 receptor variants, after IL-9 stimulation; assay type: cell-based; details: TS1 cells expressing the receptor form, starved 6 hours, treated 5 minutes with human or murine IL-9 (100 ng/ml), FIG. 15
Description: (§1) To determine growth response of TS1 cells expressing various forms of human IL-9 receptor, cells were washed with PBS and resuspended in D-MEM, 10% fetal bovine serum. 10^3 cells per well were seeded in triplicate in 96-well microplates and, where appropriate, recombinant human IL-9 or murine IL-9 (R&D Systems, Minneapolis, Minn.) was added at a final concentration of 5 ng/ml. Cell proliferation was evaluated after 7 days using an acid phosphatase assay. Briefly, 50 μl of a buffer containing 0.1 M sodium acetate (pH 5.5), 0.1% Triton X-100 and 10 mM p-nitrophenyl phosphate (Sigma 104 phosphatase substrate) was added per well. The plate was incubated for 1-½ hours at room temperature, the reaction stopped with 10 μl/well of 1N sodium hydroxide and the absorbance was read on a Dynatech Model MR600 at 410 nm. To analyze tyrosine-phosphorylation of proteins of the signal transduction cascade upon cytokine stimulation, TS1 cells expressing various forms of human IL-9 receptor were washed with PBS, resuspended in D-MEM, 0.5% bovine serum albumin, and incubated for 6 hours at 37° C. Successively, 20×10^6 cells were treated for 5 minutes with either human IL-9 or murine IL-9 (100 ng/ml) and immediately washed in cold PBS. Cells were lysed in RIPA buffer as described in Example 11.
Typically, 20-50×10^6cells were lysed in 1 ml of RIPA buffer (PBS containing 1% NP40, 0.5% sodium deoxycholate, 0.1% SDS, 1 mM PMSF, 50 mM sodium fluoride, […] sodium orthovanadate, and 1× “Complete” protease inhibitors mixture, Cat. No. 1697498 Boehringer Mannheim) and incubated for 45 minutes on ice. Lysates were centrifuged for 20 minutes in an Eppendorf microcentrifuge and the supernatant recovered and transferred to a fresh tube. For immunoprecipitations, 1-5 μg of the antibody were added to the lysate and incubated overnight at 4° C. […] Proteins were transferred onto Immobilion-P membrane (Millipore) and detected using a horseradish peroxidase-conjugated secondary antibody followed by a chemiluminescence detection assay (Pierce). […]

[2] = test system: TS1 cells; assay: Proliferation of TS1 cells expressing different forms of human IL-9 receptor (acid phosphatase assay); assay type: cell-based, murine; details: TS1 cells expressing the receptor form, IL-9 5 ng/ml, 7 days, FIG. 16
Description: as §1

[3] = listed as splice variant of the IL-9R

Row | Molecule | activation (tyrosine phosphorylation) of proteins of the Jak-Stat pathway [1] | activation (tyrosine phosphorylation) of proteins of the Jak-Stat pathway [1, 3] | cellular proliferation upon IL-9 stimulation [2] | cellular proliferation upon IL-9 stimulation [2, 3]
1 | B1 | all of the proteins of the pathway including Jak3 and Irs1 were phophoralated |  |  | 
2 | B2 | could not activate any proteins in the Jak-Stat pathway | not able to transcribe a signal through the Jak-Stat pathway | could not support cellular proliferation upon IL-9 stimulation | unable to induce cellular proliferation upon stimulation with IL-9
